Measured values from patent publication US20240189408A1, “COMPOSITIONS AND METHODS FOR REDUCING METHANE EMISSIONS IN RUMINANT POPULATIONS” (Arkea Bio Corp., priority 2022, published 2024).
Values joined by “and” are separate entries in the source; they are usually repeats but may differ in a detail not shown here. Identical values can stand only once.

Tests used:
[1] = LNP size and polydispersity by DLS (Malvern Panalytical); format: physicochemical; details: mRNA LNPs, Example 6
Method: (§1) To prepare lipid nanoparticles (LNPs), the mRNA stocks were thawed on ice. Nucleic acid concentrations were validated by absorbance at 260 nm using a NanoDrop. The mRNAs were then diluted to a final concentration of 0.35 mg/mL mRNA in Precision Nanosystem's dilution buffer. 10 mL of the dilute mRNAs were loaded into separate Luer lock syringes and all bubbles were removed by gentle tapping. A NanoAssemblr Ignite NxGen Cartridge was loaded into the cartridge slot of the Ignite instrument (FIG. 8A, 801) and one mRNA syringe was attached to the aqueous inlet of the cartridge. 3.3 mL of Genvoy-ILM reagent was loaded into a separate Luer lock syringes and all bubbles were removed by gentle tapping. The Genvoy-ILM syringe was then attached to the organic inlet of the cartridge. LNPs were then generated and collected into a 15 mL conical tube. The process was repeated for the remaining two mRNAs and for a buffer only LNP control (empty). Immediately after LNPs were generated, the samples were loaded into 10K dialysis cartridges, submerged into 1×DPBS (Ca^2+ and Mg^2+-free) to reduce the ethanol concentration to <0.5%. After dialysis the LNPs were recovered from the dialysis cartridges and sterile filtered at 0.2 um. Size and polydispersity (FIG. 8A, 802) were measured using a Malvern Panalytical DLS by diluting 40 uL of LNPs into 360 uL of 1×DPBS. […] Encapsulation efficiency was measured using a RiboGreen assay following Precision Nanosystems recommended protocol using a BioTek Synergy H1 Plate Reader. The resultant encapsulation efficiencies are shown in Table 14, with an average of ˜85%.
(§2) To prepare lipid nanoparticles (LNPs), the mRNA stocks were thawed on ice. Nucleic acid concentrations were validated by absorbance at 260 nm using a NanoDrop. The mRNAs were then diluted to a final concentration of 0.35 mg/mL mRNA in Precision Nanosystem's dilution buffer. 10 mL of the dilute mRNAs were loaded into separate Luer lock syringes and all bubbles were removed by gentle tapping. A NanoAssemblr Ignite NxGen Cartridge was loaded into the cartridge slot of the Ignite instrument and one mRNA syringe was attached to the aqueous inlet of the cartridge. 3.3 mL of Genvoy-ILM reagent was loaded into a separate Luer lock syringes and all bubbles were removed by gentle tapping. The Genvoy-LM syringe was then attached to the organic inlet of the cartridge. LNPs were then generated and collected into a 15 mL conical tube. The process was repeated for the remaining mRNAs and for a buffer only LNP control (empty). Immediately after LNPs were generated, the samples were loaded into 10K dialysis cartridges, submerged into Ix DPBS (Ca^2+ and Mg^2+-free) to reduce the ethanol concentration to <0.5%. After dialysis the LNPs were recovered from the dialysis cartridges and sterile filtered at 0.2 um. Size and polydispersity (FIG. 12 and FIG. 13) were measured using a Malvern Panalytical DLS by diluting 40 uL of LNPs into 360 uL of 1×DPBS. […] Encapsulation efficiency was measured using a RiboGreen assay following Precision Nanosystems recommended protocol using a BioTek Synergy H1 Plate Reader. The resultant encapsulation efficiencies are shown in Table 18, with an average of ˜60%.
(§3) To prepare lipid nanoparticles (LNPs), the mRNA stocks are thawed on ice. Nucleic acid concentrations are validated by absorbance at 260 nm using a NanoDrop. The mRNAs are then diluted to a final concentration of 0.35 mg/mL mRNA in Precision Nanosystem's dilution buffer. 10 mL of the dilute mRNAs are loaded into separate Luer lock syringes and all bubbles are removed by gentle tapping. A NanoAssemblr Ignite NxGen Cartridge is loaded into the cartridge slot of the Ignite instrument and one mRNA syringe is attached to the aqueous inlet of the cartridge. 3.3 mL of Genvoy-ILM reagent is loaded into a separate Luer lock syringes and all bubbles are removed by gentle tapping. The Genvoy-ILM syringe is then attached to the organic inlet of the cartridge. […]

[2] = LNP encapsulation efficiency, RiboGreen assay; format: physicochemical; details: mRNA LNPs, Example 6
Method: as §1, §2, §3

[3] = tested on: total IgG; test: Total sera IgG by radial immunodiffusion after IM or SQ vaccination with OVA mRNA LNPs; format: in vivo, dairy cows; details: for Serum IgG Concentration: one line per animal replicate
Method: (§4) Bovine nucleic acid vaccination protocols (SQ and IM) were assessed in vivo in the dairy cows through the quantification of the adaptive immune response following inoculation with ovalbumin (OVA). Immune response was assessed by quantifying total IgG and OVA-specific IgG over a 28-day period after vaccination. Both SQ and IM vaccination provided a robust immune response, with IM vaccination providing a higher total immune response than SQ vaccination.
(§5) Dairy cows were dried off for a period of eight days prior to vaccination. Each vaccine formulation was administered either by IM or SQ injection to three animals. In total, 15 animals were vaccinated with LNPs containing mRNA and 6 animals were vaccinated with empty LNPs. Intramuscular injections were delivered into the cow's right neck muscle by veterinary-trained staff using an 18-gauge 1-1.5″ needle. Subcutaneous injections were delivered into the cow's right shoulder by veterinary-trained staff using an 18-gauge 0.5-0.75″ needle. Total blood samples (˜20 mL) were collected by veterinary-trained staff. Samples were collected into 10 mL vacutainer tubes (2×10 mL) from the coccygeal vein (tail vein) by needle puncture. Harvested blood samples were then processed via ultracentrifugation for serum collection. Isolated serum samples were aliquoted, labeled and stored in cryogenic tubes at −20° C. until use.
Sera samples were thawed on ice and total IgG was quantified using Triple J Farms' Ig Radial Immunodiffusion (RID) kits (Cat No. 728411) following the manufacturers recommended protocol.

[4] = tested on: ovalbumin (OVA); test: OVA-specific IgG ELISA of sera after IM or SQ vaccination; format: in vivo, dairy cows; details: one line per animal replicate
Method: as §4, §5
Sera samples were thawed on ice and total IgG was quantified using NovateinBio's Bovine OVA sIgG Antibody ELISA Kit (Cat No. BG-BVN11731) following the manufacturer's recommended protocol. Each of the animals vaccinated with a construct show a demonstrable OVA-specific IgG response over the 28-day test period.

B1: ARK011: mRNA: SP + Ova + TM/C, membrane-anchored OVA; SEQ ID NO: 16673 (nucleic acid)
chain: ATGTTCGTGTTCCTCGTGCTCCTGCCCCTCGTCTCCAGCCAGTGCGTGGGGTCCATAGGGGCTGCTTCTATGGAGTTCTGTTTTGATGTTTTCAAGGAACTGAAGGTTCACCATGCTAACGAGAACATCTTTTACTGTCCAATAGCCATCATGAGTGCGCTTGCTATGGTTTATTTGGGTGCAAAAGATTCTACTCGCACTCAGATTAATAAGGTCGTTAGATTCGACAAGCTTCCAGGGTTTGGAGACAGTATTGAGGCCCAATGTGGAACGTCAGTCAACGTCCATTCTTCTCTGCGGGACATTCTCAACCAAATAACGAAGCCAAACGACGTGTATTCCTTCTCACTCGCGTCACGGCTGTATGCTGAAGAAAGGTATCCTATCTTGCCAGAATATCTCCAGTGCGTCAAGGAGTTGTATCGAGGCGGACTGGAACCGATCAACTTTCAGACTGCAGCCGACCAGGCCCGCGAACTGATCAACAGCTGGGTCGAGTCTCAGACCAATGGGATCATACGCAATGTGTTGCAACCGAGTAGTGTCGACTCTCAGACGGCTATGGTCTTGGTGAACGCTATAGTCTTCAAAGGTCTGTGGGAGAAGACCTTCAAGGATGAAGACACACAAGCGATGCCATTCAGAGTCACCGAACAAGAAAGCAAACCCGTCCAAATGATGTACCAAATTGGGCTTTTTCGGGTGGCCTCTATGGCCTCTGAGAAAATGAAAATATTGGAACTGCCCTTCGCCAGCGGCACAATGAGTATGTTGGTCCTTCTTCCAGATGAAGTCTCAGGTCTCGAACAGCTTGAGTCTATCATTAACTTTGAGAAACTCACTGAATGGACTTCTTCCAATGTGATGGAAGAACGAAAAATCAAAGTCTACCTGCCCCGAATGAAGATGGAAGAGAAATATAATTTGACATCAGTTCTGATGGCCATGGGAATCACAGACGTGTTTTCATCCTCTGCGAATCTGTCTGGCATATCTTCCGCAGAATCTCTCAAGATCAGTCAAGCCGTCCACGCGGCCCATGCTGAGATAAATGAGGCGGGCAGAGAGGTGGTGGGGTCCGCCGAAGCTGGAGTCGACGCAGCTTCTGTCAGTGAAGAATTTAGGGCCGATCATCCTTTCCTGTTCTGCATAAAGCACATAGCTACGAACGCTGTGCTTTTCTTTGGCAGATGCGTTTCTCCACCCTGGTACATCTGGCTGGGCTTCATCGCAGGACTGATCGCCATCGTCATGGTCACCATAATGCTCTGTTGCATGACCTCCTGCTGTAGCTGCCTGAAAGGCTGTTGCAGCTGCGGGAGCTGCTGCAAATTCGACGAAGACGATAGCGAACCTGTGCTCAAAGGGGTGAAGTTGCATTACACATAGTGA
modifications: listed as DNA
PDI [1]: 0.1665
Z-avg. [1]: 97.79 nm·days
Encapsulation efficiency [2]: 83%
Serum IgG Concentration ([3]; IM injection, Day 0, dairy cows, dose 348-468 ug): 5,261 mg/dL and 5,203 mg/dL and 6,150 mg/dL
Serum IgG Concentration ([3]; IM injection, Day 14, dairy cows, dose 348-468 ug): 4,902 mg/dL and 5,664 mg/dL and 6,716 mg/dL
Serum IgG Concentration ([3]; IM injection, Day 28, dairy cows, dose 348-468 ug): 3,702 mg/dL and 4,145 mg/dL and 3,794 mg/dL
Serum IgG Concentration ([3]; SQ injection, Day 0, dairy cows, dose 353-468 ug): 4,956 mg/dL and 5,599 mg/dL and 4,964 mg/dL
Serum IgG Concentration ([3]; SQ injection, Day 14, dairy cows, dose 353-468 ug): 4,815 mg/dL and 4,777 mg/dL and 6,139 mg/dL
Serum IgG Concentration ([3]; SQ injection, Day 21, dairy cows, dose 353-468 ug): 5,722 mg/dL and 4,034 mg/dL and 7,379 mg/dL
Serum IgG Concentration ([3]; SQ injection, Day 28, dairy cows, dose 353-468 ug): 4,877 mg/dL and 4,344 mg/dL and 3,730 mg/dL
total sera IgG immune response, treated groups normalized against the empty groups ([3]; dairy cows, 3 animals per construct, 28-day test period, FIG. 9): robust and prolonged immune response across all 3 animals
OVA-specific IgG, Absorbance (OD450) ([4]; IM injection, Day 0, dairy cows): 0.327 OD450 and 0.591 OD450 and 1.937 OD450
OVA-specific IgG, Absorbance (OD450) ([4]; IM injection, Day 14, dairy cows): 0.64 OD450 and 0.616 OD450 and 1.817 OD450
OVA-specific IgG, Absorbance (OD450) ([4]; IM injection, Day 21, dairy cows): 0.757 OD450 and 0.513 OD450 and 2.024 OD450
OVA-specific IgG, Absorbance (OD450) ([4]; IM injection, Day 28, dairy cows): 0.626 OD450 and 0.603 OD450 and 1.663 OD450
OVA-specific IgG, Absorbance (OD450) ([4]; SQ injection, Day 0, dairy cows): 1.004 OD450 and 0.952 OD450 and 0.756 OD450
OVA-specific IgG, Absorbance (OD450) ([4]; SQ injection, Day 14, dairy cows): 1.16 OD450 and 0.955 OD450 and 1.085 OD450
OVA-specific IgG, Absorbance (OD450) ([4]; SQ injection, Day 21, dairy cows): 1.036 OD450 and 0.7 OD450 and 1.063 OD450
OVA-specific IgG, Absorbance (OD450) ([4]; SQ injection, Day 28, dairy cows): 0.916 OD450 and 0.68 OD450 and 0.704 OD450
